For the series, the target named is T1, SELADIN-1.
T1 chain: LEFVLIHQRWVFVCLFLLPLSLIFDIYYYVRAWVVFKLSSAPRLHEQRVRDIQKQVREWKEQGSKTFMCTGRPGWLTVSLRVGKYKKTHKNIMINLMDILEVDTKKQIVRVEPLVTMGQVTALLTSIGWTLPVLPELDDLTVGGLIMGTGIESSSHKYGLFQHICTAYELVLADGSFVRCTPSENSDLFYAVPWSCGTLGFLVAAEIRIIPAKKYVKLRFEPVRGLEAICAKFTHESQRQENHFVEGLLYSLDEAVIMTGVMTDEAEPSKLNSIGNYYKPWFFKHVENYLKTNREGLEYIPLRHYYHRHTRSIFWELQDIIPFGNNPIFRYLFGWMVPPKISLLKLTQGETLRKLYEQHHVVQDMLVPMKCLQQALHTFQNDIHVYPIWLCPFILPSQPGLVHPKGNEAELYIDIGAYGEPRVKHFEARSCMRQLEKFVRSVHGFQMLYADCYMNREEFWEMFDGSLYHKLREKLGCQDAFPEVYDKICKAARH

B1: caspase 6 (protein)
chain: AFYKREMFDPAEKYKMDHRRRGIALIFNHERFFWHLTLPERRGTCADRDNLTRRFSDLGFEVKCFNDLKAEELLLKIHEVSTVSHADADCFVCVFLSHGEGNHIYAYDAKIEIQTLTGLFKGDKCHSLVGKPKIFIIQACRGNQHDVPVIPLDVVDNQTEKLDTNITEVDAASVYTLPAGADFLMCYSVAEGYYSHRETVNGSWYIQDLCEMLGKYGSSLEFTELLTLVNRKVSQRRVDFCKDPSAIGKKQVPCFASMLTKKLHFFPKSN
In the case of B1, the “in vitro cleavage of SELADIN-1 (fragment sizes)” value is “In vitro cleavage of SELADIN-1 by caspase 3 or 6 generated four different SELADIN-1 fragments of approximately 50, 40, 30 and 20 kDa, respectively”.

B2: caspase 3 (protein)
chain: SGISLDNSYKMDYPEMGLCIIINNKNFHKSTGMTSRSGTDVDAANLRETFRNLKYEVRNKNDLTREEIVELMRDVSKEDHSKRSSFVCVLLSHGEEGIIFGTNGPVDLKKITNFFRGDRCRSLTGKPKLFIIQACRGTELDCGIETDSGVDDDMACHKIPVEADFLYAYSTAPGYYSWRNSKDGSWFIQSLCAMLKQYADKLEFMHILTRVNRKVATEFESFSFDATFHAKKQIPCIVSMLTKELYFYH
In the case of B2, the “in vitro cleavage of SELADIN-1 (fragment sizes)” value was “In vitro cleavage of SELADIN-1 by caspase 3 or 6 generated four different SELADIN-1 fragments of approximately 50, 40, 30 and 20 kDa, respectively”.
